This assay deals with T1, human CD19 on CD19(+) NALM6 acute lymphoid leukemia cells (UniProt P15391 20-556).
T1 chain: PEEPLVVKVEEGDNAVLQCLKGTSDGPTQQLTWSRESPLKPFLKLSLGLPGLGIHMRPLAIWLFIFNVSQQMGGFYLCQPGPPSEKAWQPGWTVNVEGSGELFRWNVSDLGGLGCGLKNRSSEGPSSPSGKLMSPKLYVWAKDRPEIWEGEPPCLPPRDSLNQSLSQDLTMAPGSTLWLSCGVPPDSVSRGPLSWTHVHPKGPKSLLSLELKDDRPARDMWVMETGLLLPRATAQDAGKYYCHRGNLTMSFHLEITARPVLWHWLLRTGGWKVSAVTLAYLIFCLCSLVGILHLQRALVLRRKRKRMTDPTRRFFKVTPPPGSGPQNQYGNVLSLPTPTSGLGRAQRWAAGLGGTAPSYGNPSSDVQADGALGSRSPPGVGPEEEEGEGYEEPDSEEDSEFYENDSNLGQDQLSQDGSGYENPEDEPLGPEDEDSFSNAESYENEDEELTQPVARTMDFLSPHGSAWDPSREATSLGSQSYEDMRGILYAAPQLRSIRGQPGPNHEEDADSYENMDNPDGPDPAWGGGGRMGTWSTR
The experiment in a line: FACS. A general note: In flow cytometry, cells or beads pass a laser one at a time.

B1: CD19-BsAb BC250 (hFMC63 VL-2/VH-1b x CD3 IgG-scFv bispecific antibody) (bispecific antibody)
heavy: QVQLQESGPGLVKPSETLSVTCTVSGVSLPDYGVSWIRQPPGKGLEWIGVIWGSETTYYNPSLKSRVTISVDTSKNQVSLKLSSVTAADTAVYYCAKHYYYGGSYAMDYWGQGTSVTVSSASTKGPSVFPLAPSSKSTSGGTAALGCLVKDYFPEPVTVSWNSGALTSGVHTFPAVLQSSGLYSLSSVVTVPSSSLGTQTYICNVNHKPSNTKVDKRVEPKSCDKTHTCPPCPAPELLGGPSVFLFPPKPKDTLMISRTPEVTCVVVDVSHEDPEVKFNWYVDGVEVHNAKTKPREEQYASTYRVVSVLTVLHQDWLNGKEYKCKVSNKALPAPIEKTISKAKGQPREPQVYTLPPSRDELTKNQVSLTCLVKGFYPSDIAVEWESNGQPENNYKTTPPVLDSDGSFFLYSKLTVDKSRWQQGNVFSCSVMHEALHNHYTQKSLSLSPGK
light: DIQMTQSPSSLSASVGDRVTITCQASQDISKYLNWYQQKPGKAVKLLIYHTSRLHSGVPSRFSGSGSGTDYTLTISSLQPEDIATYFCQQGNTLPYTFGGGTKLEITRTVAAPSVFIFPPSDEQLKSGTASVVCLLNNFYPREAKVQWKVDNALQSGNSQESVTEQDSKDSTYSLSSTLTLSKADYEKHKVYACEVTHQGLSSPVTKSFNRGECTSGGGGSGGGGSGGGGSQVQLVQSGGGVVQPGRSLRLSCKASGYTFTRYTMHWVRQAPGKCLEWIGYINPSRGYTNYNQKFKDRFTISRDNSKNTAFLQMDSLRPEDTGVYFCARYYDDHYSLDYWGQGTPVTVSSGGGGSGGGGSGGGGSGGGGSGGGGSGGGGSDIQMTQSPSSLSASVGDRVTITCSASSSVSYMNWYQQTPGKAPKRWIYDTSKLASGVPSRFSGSGSGTDYTFTISSLQPEDIATYYCQQWSSNPFTFGCGTKLQITR
The EC50 is the concentration at which the effect is half-maximal. Read a low EC50 as higher potency in that assay. B1 yielded a 50% effective concentration (EC50) of 0.1 µg/mL.

B2: L2+H8b (antibody, V domains shown)
VH: QVQLQESGPGLVKPSETLSVTCTVSGVSLPDYGVSWIRQPPGKGLEWIGVIWGSETTYYNPSLKSRLTISKDTSKNQFSLKLSSVTAADTAVYYCAKHYYYGGSYAMDYWGQGTSVTVSS
VL: DIQMTQSPSSLSASVGDRVTITCQASQDISKYLNWYQQKPGKAVKLLIYHTSRLHSGVPSRFSGSGSGTDYTLTISSLQPEDIATYFCQQGNTLPYTFGGGTKLEIT
For B2, the EC50 was 0.1 µg/mL.

B3: L1+H8b (antibody, V domains shown)
VH: QVQLQESGPGLVKPSETLSVTCTVSGVSLPDYGVSWIRQPPGKGLEWIGVIWGSETTYYNPSLKSRLTISKDTSKNQFSLKLSSVTAADTAVYYCAKHYYYGGSYAMDYWGQGTSVTVSS
VL: DIQMTQSPSSLSASVGDRVTITCRASQDISKYLNWYQQKPGKAVKLLIYHTSRLHTGVPSRFSGSGSGTDYTLTISSLQPEDIATYFCQQGNTLPYTFGGGTKLEIT
For B3, the response was half-maximal at 0.13 µg/mL (EC50). The EC50 values of the last two molecules are within 1.5-fold of each other.

B4: L2+H4 (antibody, V domains shown)
VH: QVQLQESGPGLVKPSETLSLTCTVSGVSLPDYGVSWIRQPPGKGLEWIGVIWGSETTNYNPSLKSRVTISVDNSKNQFSLKLSSLTAADTAVYYCAKHYYYGGSYAMDYWGQGTSVTVSS
VL: DIQMTQSPSSLSASVGDRVTITCQASQDISKYLNWYQQKPGKAVKLLIYHTSRLHSGVPSRFSGSGSGTDYTLTISSLQPEDIATYFCQQGNTLPYTFGGGTKLEIT
Take B4: a half-maximal effect (EC50) was put at 0.27 µg/mL.

B5: L3+H7b (antibody, V domains shown)
VH: QVQLQESGPGLVKPSETLSLTCTVSGVSLPDYGVSWIRQPPGKGLEWIGVIWGSETTYYNPSLKSRVTISKDTSKSQFSLKMSSVTAADTAVYYCAKHYYYGGSYAMDYWGQGTSVTVSS
VL: DIQMTQSTSSLSASVGDRVTITCRASQDISKYLNWYQQKPGKAVKLLIYHTSRLHSGVPSRFSGSGSGTDYTFTISSLQPEDIATYYCQQGNTLPYTFGGGTKLEIT
The molecule B5 had a concentration for a half-maximal effect (EC50) of 0.08 µg/mL.

B6: L1+H7b (antibody, V domains shown)
VH: QVQLQESGPGLVKPSETLSLTCTVSGVSLPDYGVSWIRQPPGKGLEWIGVIWGSETTYYNPSLKSRVTISKDTSKSQFSLKMSSVTAADTAVYYCAKHYYYGGSYAMDYWGQGTSVTVSS
VL: DIQMTQSPSSLSASVGDRVTITCRASQDISKYLNWYQQKPGKAVKLLIYHTSRLHTGVPSRFSGSGSGTDYTLTISSLQPEDIATYFCQQGNTLPYTFGGGTKLEIT
Molecule B6 registered an EC50 of 0.07 µg/mL. This EC50 and that of the molecule before are within 1.5-fold of each other.

B7: L2+H5b (antibody, V domains shown)
VH: QVQLQESGPGLVKPSETLSLTCTVSGVSLPDYGVSWIRQPPGKGLEWIGVIWGSETTNYNPSLKSRVTISKDTSKSQVSLKLSSVTAADTAVYYCAKHYYYGGSYAMDYWGQGTSVTVSS
VL: DIQMTQSPSSLSASVGDRVTITCQASQDISKYLNWYQQKPGKAVKLLIYHTSRLHSGVPSRFSGSGSGTDYTLTISSLQPEDIATYFCQQGNTLPYTFGGGTKLEIT
In turn, B7 showed a half-maximal effective concentration (EC50) of 0.19 µg/mL.

B8: L1+H1b (antibody, V domains shown)
VH: QVQLQESGPGLVKPSETLSVTCTVSGVSLPDYGVSWIRQPPGKGLEWIGVIWGSETTYYNPSLKSRVTISVDTSKNQVSLKLSSVTAADTAVYYCAKHYYYGGSYAMDYWGQGTSVTVSS
VL: DIQMTQSPSSLSASVGDRVTITCRASQDISKYLNWYQQKPGKAVKLLIYHTSRLHTGVPSRFSGSGSGTDYTLTISSLQPEDIATYFCQQGNTLPYTFGGGTKLEIT
Take B8: the EC50 turned out to be 0.13 µg/mL.

B9: L3+H1b (antibody, V domains shown)
VH: QVQLQESGPGLVKPSETLSVTCTVSGVSLPDYGVSWIRQPPGKGLEWIGVIWGSETTYYNPSLKSRVTISVDTSKNQVSLKLSSVTAADTAVYYCAKHYYYGGSYAMDYWGQGTSVTVSS
VL: DIQMTQSTSSLSASVGDRVTITCRASQDISKYLNWYQQKPGKAVKLLIYHTSRLHSGVPSRFSGSGSGTDYTFTISSLQPEDIATYYCQQGNTLPYTFGGGTKLEIT
The molecule B9 showed an EC50 of 0.19 µg/mL.

B10: L2+H6b (antibody, V domains shown)
VH: QVQLQESGPGLVKPSETLSLTCTVSGVSLPDYGVSWIRQPPGKGLEWLGVIWGSETTYYNPSLKSRVTISVDNSKNQFSLKLSSVTAADTAVYYCAKHYYYGGSYAMDYWGQGTSVTVSS
VL: DIQMTQSPSSLSASVGDRVTITCQASQDISKYLNWYQQKPGKAVKLLIYHTSRLHSGVPSRFSGSGSGTDYTLTISSLQPEDIATYFCQQGNTLPYTFGGGTKLEIT
In the case of B10, the concentration giving a half-maximal response (EC50) was 0.08 µg/mL.

B11: L3+H4 (antibody, V domains shown)
VH: QVQLQESGPGLVKPSETLSLTCTVSGVSLPDYGVSWIRQPPGKGLEWIGVIWGSETTNYNPSLKSRVTISVDNSKNQFSLKLSSLTAADTAVYYCAKHYYYGGSYAMDYWGQGTSVTVSS
VL: DIQMTQSTSSLSASVGDRVTITCRASQDISKYLNWYQQKPGKAVKLLIYHTSRLHSGVPSRFSGSGSGTDYTFTISSLQPEDIATYYCQQGNTLPYTFGGGTKLEIT
Regarding B11, the 50% effective concentration (EC50) amounted to 0.42 µg/mL.

B12: L2+H2b (antibody, V domains shown)
VH: QVQLQESGPGLVKPSETLSLTCTVSGVSLPDYGVSWIRQPPGKGLEWLGVIWGSETTNYNPSLKSRVTISKDTSKNQFSLKLSSLTAADTAVYYCAKHYYYGGSYAMDYWGQGTSVTVSS
VL: DIQMTQSPSSLSASVGDRVTITCQASQDISKYLNWYQQKPGKAVKLLIYHTSRLHSGVPSRFSGSGSGTDYTLTISSLQPEDIATYFCQQGNTLPYTFGGGTKLEIT
B12 had an EC50 of 0.17 µg/mL.

B13: L1+H2b (antibody, V domains shown)
VH: QVQLQESGPGLVKPSETLSLTCTVSGVSLPDYGVSWIRQPPGKGLEWLGVIWGSETTNYNPSLKSRVTISKDTSKNQFSLKLSSLTAADTAVYYCAKHYYYGGSYAMDYWGQGTSVTVSS
VL: DIQMTQSPSSLSASVGDRVTITCRASQDISKYLNWYQQKPGKAVKLLIYHTSRLHTGVPSRFSGSGSGTDYTLTISSLQPEDIATYFCQQGNTLPYTFGGGTKLEIT
On to B13, for which a half-maximal response (EC50) required 0.23 µg/mL.

B14: L1+H6b (antibody, V domains shown)
VH: QVQLQESGPGLVKPSETLSLTCTVSGVSLPDYGVSWIRQPPGKGLEWLGVIWGSETTYYNPSLKSRVTISVDNSKNQFSLKLSSVTAADTAVYYCAKHYYYGGSYAMDYWGQGTSVTVSS
VL: DIQMTQSPSSLSASVGDRVTITCRASQDISKYLNWYQQKPGKAVKLLIYHTSRLHTGVPSRFSGSGSGTDYTLTISSLQPEDIATYFCQQGNTLPYTFGGGTKLEIT
On to B14, for which the EC50 was 0.08 µg/mL. This EC50 lies about 2.9-fold lower than the previous one.

B15: L3+H2b (antibody, V domains shown)
VH: QVQLQESGPGLVKPSETLSLTCTVSGVSLPDYGVSWIRQPPGKGLEWLGVIWGSETTNYNPSLKSRVTISKDTSKNQFSLKLSSLTAADTAVYYCAKHYYYGGSYAMDYWGQGTSVTVSS
VL: DIQMTQSTSSLSASVGDRVTITCRASQDISKYLNWYQQKPGKAVKLLIYHTSRLHSGVPSRFSGSGSGTDYTFTISSLQPEDIATYYCQQGNTLPYTFGGGTKLEIT
Regarding B15, the EC50 turned out to be 0.28 µg/mL.

B16: L1+H4 (antibody, V domains shown)
VH: QVQLQESGPGLVKPSETLSLTCTVSGVSLPDYGVSWIRQPPGKGLEWIGVIWGSETTNYNPSLKSRVTISVDNSKNQFSLKLSSLTAADTAVYYCAKHYYYGGSYAMDYWGQGTSVTVSS
VL: DIQMTQSPSSLSASVGDRVTITCRASQDISKYLNWYQQKPGKAVKLLIYHTSRLHTGVPSRFSGSGSGTDYTLTISSLQPEDIATYFCQQGNTLPYTFGGGTKLEIT
Molecule B16 yielded a concentration for a half-maximal effect (EC50) of 0.25 µg/mL.

B17: L2+H7b (antibody, V domains shown)
VH: QVQLQESGPGLVKPSETLSLTCTVSGVSLPDYGVSWIRQPPGKGLEWIGVIWGSETTYYNPSLKSRVTISKDTSKSQFSLKMSSVTAADTAVYYCAKHYYYGGSYAMDYWGQGTSVTVSS
VL: DIQMTQSPSSLSASVGDRVTITCQASQDISKYLNWYQQKPGKAVKLLIYHTSRLHSGVPSRFSGSGSGTDYTLTISSLQPEDIATYFCQQGNTLPYTFGGGTKLEIT
B17: the concentration for a half-maximal effect (EC50) is 0.06 µg/mL.

B18: L1+H3 (antibody, V domains shown)
VH: QVQLQESGPGLVKPSETLSLTCTVSGVSLPDYGVSWIRQPPGKGLEWIGVIWGSETTNYNPSLKSRLTISVDTSKNQFSLKMSSVTAADTAVYYCAKHYYYGGSYAMDYWGQGTSVTVSS
VL: DIQMTQSPSSLSASVGDRVTITCRASQDISKYLNWYQQKPGKAVKLLIYHTSRLHTGVPSRFSGSGSGTDYTLTISSLQPEDIATYFCQQGNTLPYTFGGGTKLEIT
Regarding B18, the EC50 was determined as 0.37 µg/mL. Against the preceding molecule, the EC50 is about 6.2-fold higher.

B19: L1+H5b (antibody, V domains shown)
VH: QVQLQESGPGLVKPSETLSLTCTVSGVSLPDYGVSWIRQPPGKGLEWIGVIWGSETTNYNPSLKSRVTISKDTSKSQVSLKLSSVTAADTAVYYCAKHYYYGGSYAMDYWGQGTSVTVSS
VL: DIQMTQSPSSLSASVGDRVTITCRASQDISKYLNWYQQKPGKAVKLLIYHTSRLHTGVPSRFSGSGSGTDYTLTISSLQPEDIATYFCQQGNTLPYTFGGGTKLEIT
Molecule B19 showed an EC50 of 0.18 µg/mL.

The record behind these values is patent US20220177579A1 (published 2022).
